# Reference: PMC5180592 (Science (New York, N.Y.), 2015)
# T1: Nup120 (S. cerevisiae, UniProt P35729 1-1037)
# T1 sequence: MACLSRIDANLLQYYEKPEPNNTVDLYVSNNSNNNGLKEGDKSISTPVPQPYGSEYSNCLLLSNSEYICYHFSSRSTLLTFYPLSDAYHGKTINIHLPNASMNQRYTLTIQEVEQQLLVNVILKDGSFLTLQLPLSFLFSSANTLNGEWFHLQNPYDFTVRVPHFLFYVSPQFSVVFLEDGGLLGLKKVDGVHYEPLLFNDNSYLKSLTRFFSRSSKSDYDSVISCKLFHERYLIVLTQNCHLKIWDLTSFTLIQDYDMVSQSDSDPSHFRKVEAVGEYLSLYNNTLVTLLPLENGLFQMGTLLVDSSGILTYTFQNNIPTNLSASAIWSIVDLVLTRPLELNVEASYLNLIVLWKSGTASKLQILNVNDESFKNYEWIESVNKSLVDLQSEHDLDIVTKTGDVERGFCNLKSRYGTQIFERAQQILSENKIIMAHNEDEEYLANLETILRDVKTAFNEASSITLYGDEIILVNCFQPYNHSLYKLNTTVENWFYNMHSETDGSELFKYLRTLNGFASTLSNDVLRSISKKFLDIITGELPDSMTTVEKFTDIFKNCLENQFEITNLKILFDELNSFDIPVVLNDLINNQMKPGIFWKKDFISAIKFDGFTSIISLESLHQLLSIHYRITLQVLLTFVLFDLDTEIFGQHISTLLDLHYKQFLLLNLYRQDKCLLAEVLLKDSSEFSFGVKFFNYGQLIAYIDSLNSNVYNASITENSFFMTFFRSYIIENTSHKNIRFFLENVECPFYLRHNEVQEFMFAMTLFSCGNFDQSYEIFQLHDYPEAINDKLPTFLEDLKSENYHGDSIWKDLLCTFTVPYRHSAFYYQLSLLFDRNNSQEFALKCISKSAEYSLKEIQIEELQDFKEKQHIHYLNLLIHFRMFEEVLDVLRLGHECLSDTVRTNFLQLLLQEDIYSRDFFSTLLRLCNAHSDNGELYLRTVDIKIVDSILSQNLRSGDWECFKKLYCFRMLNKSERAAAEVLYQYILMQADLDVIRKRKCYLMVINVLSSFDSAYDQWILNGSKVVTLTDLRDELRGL
# B1: Nup85 C-terminal domain (domain or fragment, S. cerevisiae, UniProt P46673 545-744, looked up)
# chain: QMLSAHNIIESIANFSRAGKYELVKSYSWLLFEASCMEGQKLDDPVLNAIVSKNSPAEDDVIIPQDILDCVVTNSMRQTLAPYAVLSQFYELRDREDWGQALRLLLLLIEFPYLPKHYLVLLVAKFLYPIFLLDDKKLMDEDSVATVIEVIETKWDDADEKSSNLYETIIEADKSLPSSMATLLKNLRKKLNFKLCQAFM
# B2: Seh1 (natural protein, S. cerevisiae)
# chain: MQPFDSGHDDLVHDVVYDFYGRHVATCSSDQHIKVFKLDKDTSNWELSDSWRAHDSSIVAIDWASPEYGRIIASASYDKTVKLWEEDPDQEECSGRRWNKLCTLNDSKGSLYSVKFAPAHLGLKLACLGNDGILRLYDALEPSDLRSWTLTSEMKVLSIPPANHLQSDFCLSWCPSRFSPEKLAVSALEQAIIYQRGKDGKLHVAAKLPGHKSLIRSISWAPSIGRWYQLIATGCKDGRIRIFKITEKLSPLASEESLTNSNMFDNSADVDMDAQGRSDSNTEEKAELQSNLQVELLSEHDDHNGEVWSVSWNLTGTILSSAGDDGKVRLWKATYSNEFKCMSVITAQQ
# B3: Nup85 (natural protein, S. cerevisiae, UniProt P46673 1-744, looked up)
# chain: MTIDDSNRLLMDVDQFDFLDDGTAQLSNNKTDEEEQLYKRDPVSGAILVPMTVNDQPIEKNGDKMPLKFKLGPLSYQNMAFITAKDKYKLYPVRIPRLDTSKEFSAYVSGLFEIYRDLGDDRVFNVPTIGVVNSNFAKEHNATVNLAMEAILNELEVFIGRVKDQDGRVNRFYELEESLTVLNCLRTMYFILDGQDVEENRSEFIESLLNWINRSDGEPDEEYIEQVFSVKDSTAGKKVFETQYFWKLLNQLVLRGLLSQAIGCIERSDLLPYLSDTCAVSFDAVSDSIELLKQYPKDSSSTFREWKNLVLKLSQAFGSSATDISGELRDYIEDFLLVIGGNQRKILQYSRTWYESFCGFLLYYIPSLELSAEYLQMSLEANVVDITNDWEQPCVDIISGKIHSILPVMESLDSCTAAFTAMICEAKGLIENIFEGEKNSDDYSNEDNEMLEDLFSYRNGMASYMLNSFAFELCSLGDKELWPVAIGLIALSATGTRSAKKMVIAELLPHYPFVTNDDIEWMLSICVEWRLPEIAKEIYTTLGNQMLSAHNIIESIANFSRAGKYELVKSYSWLLFEASCMEGQKLDDPVLNAIVSKNSPAEDDVIIPQDILDCVVTNSMRQTLAPYAVLSQFYELRDREDWGQALRLLLLLIEFPYLPKHYLVLLVAKFLYPIFLLDDKKLMDEDSVATVIEVIETKWDDADEKSSNLYETIIEADKSLPSSMATLLKNLRKKLNFKLCQAFM
# B4: synthetic antibody sAB-57 (Fab, V domains shown)
# VH: EVQLVESGGGLVQPGGSLRLSCAASGFNVSYSSIHWVRQAPGKGLEWVASIYPYYGSTSYADSVKGRFTISADTSKNTAYLQMNSLRAEDTAVYYCARTGMYFGFFHHSWSNAALDYWGQGTLVTVSS
# VL: DIQMTQSPSSLSASVGDRVTITCRASQSVSSAVAWYQQKPGKAPKLLIYSASSLYSGVPSRFSGSRSGTDFTLTISSLQPEDFATYYCQQISQYPITFGQGTKVEIK
# Legend:
# Nup120 [1] = target: T1, Nup120; experiment: SEC
# Nup85 [2] = target: B3; experiment: crystal structure
# Nup120 [3] = target: T1, Nup120; experiment: crystal structure
# Nup145C = Nup145C (S. cerevisiae, UniProt P49687); experiment: crystal structure
# Nup145C, sequence (P49687 680-1317): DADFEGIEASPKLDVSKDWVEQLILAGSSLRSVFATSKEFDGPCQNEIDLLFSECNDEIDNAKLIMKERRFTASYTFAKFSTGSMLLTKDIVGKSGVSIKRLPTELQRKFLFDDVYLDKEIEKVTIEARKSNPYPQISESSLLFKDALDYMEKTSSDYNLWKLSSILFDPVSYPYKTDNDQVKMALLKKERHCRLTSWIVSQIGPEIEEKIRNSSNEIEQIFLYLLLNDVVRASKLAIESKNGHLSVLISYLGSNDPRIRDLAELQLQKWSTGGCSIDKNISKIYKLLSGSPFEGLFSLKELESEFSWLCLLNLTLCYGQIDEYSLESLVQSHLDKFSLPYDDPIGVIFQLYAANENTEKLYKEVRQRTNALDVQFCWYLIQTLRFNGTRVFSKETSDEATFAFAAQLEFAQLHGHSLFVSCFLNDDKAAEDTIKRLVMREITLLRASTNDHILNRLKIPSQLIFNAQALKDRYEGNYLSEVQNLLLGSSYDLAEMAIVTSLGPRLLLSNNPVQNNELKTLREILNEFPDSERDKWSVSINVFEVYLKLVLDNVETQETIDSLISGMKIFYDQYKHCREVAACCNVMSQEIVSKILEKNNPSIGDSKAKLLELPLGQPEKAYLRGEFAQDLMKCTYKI
# Nup85 [4] = target: Nup85 (S. cerevisiae, UniProt P46673); experiment: crystal structure
binder,measurement,setting,value
B1,binding result,Nup120 [1],binds
B2,binding result,Nup85 [2],binds
B3,binding result,Nup120 [3],binds
B4,binding result,Nup145C,binds
same,binding result,Nup85 [4],binds
